This is an account of results in the Immune Epitope Database (IEDB).

One experiment deals with HLA-C*03:03. In words: IEDB peptide-MHC binding, purified MHC/direct/fluorescence; filed as Kd, often an IC50 or EC50 that approximates it; ≥ and ≤ were set here for values at or beyond the usual limits of such assays.
Another experiment deals with HLA-C*05:01. Described as above.
Another experiment deals with HLA-C*14:02. Described as above. To be noted: source organism: Mycobacterium tuberculosis H37Rv.
A further experiment concerns the target HLA-C*12:03. Described as above.
Another experiment deals with HLA-A*80:01. Described as above.
Experiment [1] addresses HLA-A*01:01. Briefly: IEDB peptide-MHC binding, purified MHC/competitive/fluorescence; filed as Kd, often an IC50 or EC50 that approximates it; ≥ and ≤ were set here for values at or beyond the usual limits of such assays. To be noted: source organism: Mus musculus.
The target of a further experiment is HLA-A*29:02. The description is as above. To be noted: source organism: Mus musculus.
Experiment [2] addresses HLA-B*58:01. The experiment is described as above.
Experiment [3] deals with HLA-A*01:01. In words: IEDB peptide-MHC binding, purified MHC/direct/fluorescence; filed as Kd, often an IC50 or EC50 that approximates it; ≥ and ≤ were set here for values at or beyond the usual limits of such assays.
Experiment [4] has as its target HLA-A*02:01. Described as above.
Experiment [5] addresses HLA-A*03:01. Described as above.
The target of another experiment is HLA-A*11:01. The description is as above.
For experiment [6], the target named is HLA-A*26:01. The experiment is described as above.
The next experiment deals with HLA-A*30:01. The experiment is described as above.
The target of another experiment is HLA-A*31:01. The experiment is described as above.
Another experiment deals with HLA-A*69:01. The description is as above.
Experiment [7] deals with HLA-B*07:02. Described as above.
In experiment [8] the target is HLA-B*08:01. The experiment is described as above.
The target of experiment [9] is HLA-B*15:01. The experiment is described as above.
A further experiment concerns the target HLA-B*27:05. The experiment is described as above.
For another experiment, the target named is HLA-B*40:01. Described as above.
For another experiment, the target named is HLA-B*44:02. Described as above.
Experiment [10] has as its target HLA-B*58:01. The description is as above.
Experiment [11] addresses HLA-A*03:01. In words: IEDB peptide-MHC binding, purified MHC/competitive/fluorescence; filed as Kd, often an IC50 or EC50 that approximates it; ≥ and ≤ were set here for values at or beyond the usual limits of such assays.
In experiment [12] the target is HLA-A*26:01. The description is as above. To be noted: source organism: Salmonella enterica subsp. enterica serovar Typhi.
In another experiment the target is HLA-C*15:02. Briefly: IEDB peptide-MHC binding, purified MHC/direct/fluorescence; filed as Kd, often an IC50 or EC50 that approximates it; ≥ and ≤ were set here for values at or beyond the usual limits of such assays.
Experiment [13] deals with HLA-B*07:02. Briefly: IEDB peptide-MHC binding, purified MHC/competitive/fluorescence; filed as Kd, often an IC50 or EC50 that approximates it; ≥ and ≤ were set here for values at or beyond the usual limits of such assays.
The next experiment deals with HLA-B*51:01. The description is as above. To be noted: source organism: Escherichia coli O139:H28 str. E24377A.
The target in the next experiment is HLA-A*24:02. In words: IEDB peptide-MHC binding, purified MHC/competitive/fluorescence; ≥ and ≤ were set here for values at or beyond the usual limits of such assays. To be noted: source organism: Zaire ebolavirus.
Experiment [14] has as its target HLA-B*08:01. The description is as above. To be noted: source organism: Zaire ebolavirus.
In experiment [15] the target is HLA-B*15:01. The experiment is described as above. To be noted: source organism: Zaire ebolavirus.
The target of experiment [16] is HLA-A*02:01. The description is as above. To be noted: source organism: Zaire ebolavirus.
The target in experiment [17] is HLA-B*07:02. The description is as above. To be noted: source organism: Zaire ebolavirus.
A further experiment addresses HLA-A*24:03. In words: IEDB peptide-MHC binding, purified MHC/direct/fluorescence; filed as Kd, often an IC50 or EC50 that approximates it; ≥ and ≤ were set here for values at or beyond the usual limits of such assays.
The target in a further experiment is HLA-B*35:01. Described as above.
Setting [18] is: source organism: Mycobacterium tuberculosis H37Rv.
[19] abbreviates: source organism: human gammaherpesvirus 4.
[20] abbreviates: source organism: Vibrio parahaemolyticus.
Setting [21] is: source organism: Salmonella enterica subsp. enterica serovar Typhi.
[22] abbreviates: source organism: Shigella flexneri 5 str. 8401.
Where [23] appears, read: source organism: Coxiella burnetii.
The mark [24] stands for this setting: source organism: Salmonella enterica.

Regarding AAAANTTAL, the figures for the dissociation constant Kd in the experiment with HLA-C*03:03 (setting [18]), with HLA-C*05:01 (setting [18]) and with HLA-C*14:02 were not above 0.001 µM, 1.68 µM and 0.607 µM, respectively.
AAVDNAVVV yielded a dissociation constant Kd with HLA-C*12:03 (source organism: Leishmania major strain Friedlin) not above 0.001 µM.
On to AFFAERLYY, for which the Kd is 0.0195 µM with HLA-A*80:01 (source organism: Mus musculus), not below 20 µM with HLA-A*01:01 [1] and 0.0002 µM in the experiment with HLA-A*29:02.
In the experiment with HLA-B*58:01 [2] (setting [19]), ATVKGMQSY registered a dissociation constant (Kd) of 4.38 µM.
For DQFSIPIRY, the Kd with HLA-A*01:01 [3] (setting [20]) was not below 20 µM; in the experiment with HLA-A*02:01 [4] (setting [20]) it was not below 20 µM; with HLA-A*03:01 [5] (setting [20]) it was not below 20 µM; in the experiment with HLA-A*11:01 (setting [20]), not below 20 µM; in the experiment with HLA-A*26:01 [6] (setting [20]), not below 20 µM; with HLA-A*30:01 (setting [20]), 8.36 µM. In addition, the Kd with HLA-A*31:01 (setting [20]) was not below 20 µM; with HLA-A*69:01 (setting [20]) it was not below 20 µM; with HLA-B*07:02 [7] (setting [20]) it was not below 20 µM; with HLA-B*08:01 [8] (setting [20]), not below 20 µM; with HLA-B*15:01 [9] (setting [20]), 0.579 µM; with HLA-B*27:05 (setting [20]), not below 20 µM. Besides, the Kd with HLA-B*40:01 (setting [20]), in the experiment with HLA-B*44:02 (setting [20]) and with HLA-B*58:01 [10] (setting [20]) was not below 20 µM in each case.
For ILLARLFLY, the Kd with HLA-A*80:01 (setting [19]) was 0.0033 µM; with HLA-A*03:01 [11] (setting [19]) it was 2.06 µM.
As to ITLKVFAGY, the values for the dissociation constant (Kd) in the experiment with HLA-A*03:01 [11] (setting [21]), with HLA-A*26:01 [12] and in the experiment with HLA-B*58:01 [2] (setting [21]) were 2.69 µM, 0.287 µM and 0.0116 µM, respectively.
On to KVHLTPAQL, for which the figures for the Kd in the experiment with HLA-C*15:02 (setting [22]) and with HLA-B*07:02 [13] (setting [22]) were not below 20 µM and 0.154 µM, respectively.
Regarding LLDEPTNNL, the dissociation constant Kd with HLA-A*69:01 (source organism: Burkholderia mallei) was determined as 0.0883 µM; in the experiment with HLA-C*05:01 (source organism: Bifidobacterium longum DJO10A), 0.007 µM.
Consider LPRDASQIT, for which the dissociation constant (Kd) is 0.0974 µM in the experiment with HLA-B*07:02 [13] (source organism: Escherichia coli O139:H28 str. E24377A) and not below 20 µM in the experiment with HLA-B*51:01.
As for PVMNHKNKF, the half-inhibitory concentration (IC50) in the experiment with HLA-A*24:02 is 0.106 µM; with HLA-B*08:01 [14] it was 11 µM; with HLA-B*15:01 [15] it was not below 364 µM.
As for RTAKVKNEV, the concentration for half-maximal inhibition (IC50) with HLA-A*02:01 [16] is 57.2 µM; with HLA-A*24:02 it was not below 75.3 µM; in the experiment with HLA-B*07:02 [17], 10.3 µM; with HLA-B*08:01 [14] it was 56.8 µM.
Take SDMDYHKIL: the half-maximal inhibitory concentration (IC50) with HLA-A*02:01 [16] was not below 241 µM; with HLA-A*24:02, not below 145 µM; with HLA-B*08:01 [14], not below 177 µM.
As to VMKRNFIDF, the equilibrium dissociation constant (Kd) is not below 20 µM with HLA-A*01:01 [3] (setting [23]); not below 20 µM in the experiment with HLA-A*02:01 [4] (setting [23]); not below 20 µM in the experiment with HLA-A*03:01 [5] (setting [23]); 4.91 µM in the experiment with HLA-A*24:03 (setting [23]); not below 20 µM with HLA-A*26:01 [6] (setting [23]); 3.63 µM with HLA-A*30:01 (setting [23]). For the same sequence, the Kd with HLA-A*31:01 (setting [23]) is not below 20 µM; in the experiment with HLA-A*69:01 (setting [23]), not below 20 µM; with HLA-B*08:01 [8] (setting [23]), 2.25 µM; with HLA-B*15:01 [9] (setting [23]), 0.0844 µM; in the experiment with HLA-B*27:05 (setting [23]) it was not below 20 µM; in the experiment with HLA-B*35:01 (setting [23]), 1.13 µM. The Kd with HLA-B*40:01 (setting [23]), with HLA-B*44:02 (setting [23]) and in the experiment with HLA-B*58:01 [10] (setting [23]) was not below 20 µM throughout.
VPQTDAGVT: the equilibrium dissociation constant (Kd) was not below 20 µM with HLA-A*01:01 [3] (setting [24]); not below 20 µM with HLA-A*02:01 [4] (setting [24]); not below 20 µM with HLA-A*03:01 [5] (setting [24]); 2.9 µM in the experiment with HLA-A*11:01 (setting [21]); 1.27 µM in the experiment with HLA-A*24:03 (setting [21]); not below 20 µM with HLA-A*26:01 [6] (setting [24]). The dissociation constant (Kd) with HLA-A*30:01 (setting [21]) is 4.4 µM; with HLA-A*31:01 (setting [21]), 0.592 µM; in the experiment with HLA-A*69:01 (setting [24]) it was not below 20 µM; in the experiment with HLA-B*07:02 [7] (setting [21]), 1.89 µM; in the experiment with HLA-B*08:01 [8] (setting [24]), not below 20 µM; with HLA-B*15:01 [9] (setting [24]), not below 20 µM. Moreover, the Kd with HLA-B*27:05 (setting [24]) was not below 20 µM; with HLA-B*35:01 (setting [21]) it was 0.888 µM; in the experiment with HLA-B*40:01 (setting [24]), not below 20 µM; with HLA-B*44:02 (setting [24]), not below 20 µM; in the experiment with HLA-B*58:01 [10] (setting [21]), not below 10 µM.
Sequence VVEKQSGLY returned a dissociation constant (Kd) in the experiment with HLA-A*80:01 (source organism: West Nile virus) of 0.0008 µM.
As to YMNGTMSQV, the values for the equilibrium dissociation constant (Kd) in the experiment with HLA-C*03:03 (source organism: Homo sapiens), in the experiment with HLA-C*12:03 (source organism: Homo sapiens) and with HLA-C*15:02 (source organism: Homo sapiens) were 0.371 µM, 0.088 µM and 0.372 µM, respectively.
